Assay results taken from US20080038748.

System: human recombinant LAP β1 (R&D), not treated with protease
Sequence (chain, as listed by the source): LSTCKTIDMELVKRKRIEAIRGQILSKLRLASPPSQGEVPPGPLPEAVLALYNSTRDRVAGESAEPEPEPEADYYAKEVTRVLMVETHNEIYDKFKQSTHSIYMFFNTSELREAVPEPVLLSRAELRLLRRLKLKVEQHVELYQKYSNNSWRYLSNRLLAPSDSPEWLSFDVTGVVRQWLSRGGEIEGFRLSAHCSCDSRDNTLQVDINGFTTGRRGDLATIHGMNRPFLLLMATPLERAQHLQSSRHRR

Chain of human recombinant matrix metalloprotease 3 (MMP3) (Alexis) (chain, as listed by the source): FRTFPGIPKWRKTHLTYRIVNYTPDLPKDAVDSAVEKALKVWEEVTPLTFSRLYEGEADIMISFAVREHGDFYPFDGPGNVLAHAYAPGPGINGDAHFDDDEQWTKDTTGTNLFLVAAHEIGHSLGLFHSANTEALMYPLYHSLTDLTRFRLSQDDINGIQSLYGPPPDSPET
Chain of human plasma kallikrein (Sigma) (chain, as listed by the source): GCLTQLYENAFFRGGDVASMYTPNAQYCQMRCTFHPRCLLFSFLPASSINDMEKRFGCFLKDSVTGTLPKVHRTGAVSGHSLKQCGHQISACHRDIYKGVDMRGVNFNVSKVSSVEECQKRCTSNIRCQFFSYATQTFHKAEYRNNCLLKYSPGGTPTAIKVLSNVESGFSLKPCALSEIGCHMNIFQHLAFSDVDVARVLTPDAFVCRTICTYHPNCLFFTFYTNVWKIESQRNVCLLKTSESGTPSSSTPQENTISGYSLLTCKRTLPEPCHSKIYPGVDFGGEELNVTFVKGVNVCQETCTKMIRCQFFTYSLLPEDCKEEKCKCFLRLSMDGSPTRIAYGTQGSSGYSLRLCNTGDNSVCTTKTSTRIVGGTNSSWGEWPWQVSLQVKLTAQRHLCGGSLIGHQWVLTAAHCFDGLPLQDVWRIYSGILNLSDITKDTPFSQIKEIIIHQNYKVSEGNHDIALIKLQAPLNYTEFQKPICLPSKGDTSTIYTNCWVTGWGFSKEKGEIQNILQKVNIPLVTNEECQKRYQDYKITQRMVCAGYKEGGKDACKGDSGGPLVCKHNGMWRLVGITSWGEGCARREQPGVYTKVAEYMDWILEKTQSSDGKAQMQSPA

Substance | limited degradation; cleavage site by N-terminal sequencing of the fragments
human plasma kallikrein (Sigma) | plasma kallikrein specifically cleaves between 58 Arg and 59 Leu thereof
human recombinant matrix metalloprotease 3 (MMP3) (Alexis) | MMP3 specifically cleaves between 79 Ala and 80 Leu thereof
